Data on 17 molecules can be found in patent US20120328512A1 (BRACCO IMAGING S P A, published 2012).

B1: Seq038-CF5 (peptide)
peptide: H-GWQPCPAESWTFCWDPGGGK(5FAM)-NH2
modifications: disulfide 5-13
SMILES: C[C@@H]1NC(=O)[C@@H]2CCCN2C(=O)[C@@H](NC(=O)[C@@H]2CCCN2C(=O)[C@H](CCC(N)=O)NC(=O)[C@H](Cc2c[nH]c3ccccc23)NC(=O)CN)CSSC[C@@H](C(=O)N[C@@H](Cc2c[nH]c3ccccc23)C(=O)N[C@@H](CC(=O)O)C(=O)N2CCC[C@H]2C(=O)NCC(=O)NCC(=O)NCC(=O)N[C@@H](CCCCNC(=O)c2ccc3c(c2)C(=O)OC32c3ccc(O)cc3Oc3cc(O)ccc32)C(N)=O)NC(=O)[C@H](Cc2ccccc2)NC(=O)[C@H]([C@@H](C)O)NC(=O)[C@H](Cc2c[nH]c3ccccc23)NC(=O)[C@H](CO)NC(=O)[C@H](CCC(=O)O)NC1=O
B2: Seq048-CF5 (peptide)
peptide: Ac-RWQPCPWESWTFCWDPGGGK(5FAM)-NH2
modifications: disulfide 5-13
SMILES: CC(=O)N[C@@H](CCCNC(=N)N)C(=O)N[C@@H](Cc1c[nH]c2ccccc12)C(=O)N[C@@H](CCC(N)=O)C(=O)N1CCC[C@H]1C(=O)N[C@H]1CSSC[C@@H](C(=O)N[C@@H](Cc2c[nH]c3ccccc23)C(=O)N[C@@H](CC(=O)O)C(=O)N2CCC[C@H]2C(=O)NCC(=O)NCC(=O)NCC(=O)N[C@@H](CCCCNC(=O)c2ccc3c(c2)C(=O)OC32c3ccc(O)cc3Oc3cc(O)ccc32)C(N)=O)NC(=O)[C@H](Cc2ccccc2)NC(=O)[C@H]([C@@H](C)O)NC(=O)[C@H](Cc2c[nH]c3ccccc23)NC(=O)[C@H](CO)NC(=O)[C@H](CCC(=O)O)NC(=O)[C@H](Cc2c[nH]c3ccccc23)NC(=O)[C@@H]2CCCN2C1=O
B3: Seq023-CF5 (peptide)
peptide: H-RWQPCPWESWTFCWDPGGGK(5FAM)-NH2
modifications: disulfide 5-13
SMILES: C[C@@H](O)[C@@H]1NC(=O)[C@H](Cc2c[nH]c3ccccc23)NC(=O)[C@H](CO)NC(=O)[C@H](CCC(=O)O)NC(=O)[C@H](Cc2c[nH]c3ccccc23)NC(=O)[C@@H]2CCCN2C(=O)[C@@H](NC(=O)[C@@H]2CCCN2C(=O)[C@H](CCC(N)=O)NC(=O)[C@H](Cc2c[nH]c3ccccc23)NC(=O)[C@@H](N)CCCNC(=N)N)CSSC[C@@H](C(=O)N[C@@H](Cc2c[nH]c3ccccc23)C(=O)N[C@@H](CC(=O)O)C(=O)N2CCC[C@H]2C(=O)NCC(=O)NCC(=O)NCC(=O)N[C@@H](CCCCNC(=O)c2ccc3c(c2)C(=O)OC32c3ccc(O)cc3Oc3cc(O)ccc32)C(N)=O)NC(=O)[C@H](Cc2ccccc2)NC1=O
B4: Seq022-CF5 (peptide)
peptide: H-RGWQPCPWESWTFCWDPGGGK(5FAM)-NH2
modifications: disulfide 6-14
SMILES: C[C@@H](O)[C@@H]1NC(=O)[C@H](Cc2c[nH]c3ccccc23)NC(=O)[C@H](CO)NC(=O)[C@H](CCC(=O)O)NC(=O)[C@H](Cc2c[nH]c3ccccc23)NC(=O)[C@@H]2CCCN2C(=O)[C@@H](NC(=O)[C@@H]2CCCN2C(=O)[C@H](CCC(N)=O)NC(=O)[C@H](Cc2c[nH]c3ccccc23)NC(=O)CNC(=O)[C@@H](N)CCCNC(=N)N)CSSC[C@@H](C(=O)N[C@@H](Cc2c[nH]c3ccccc23)C(=O)N[C@@H](CC(=O)O)C(=O)N2CCC[C@H]2C(=O)NCC(=O)NCC(=O)NCC(=O)N[C@@H](CCCCNC(=O)c2ccc3c(c2)C(=O)OC32c3ccc(O)cc3Oc3cc(O)ccc32)C(N)=O)NC(=O)[C@H](Cc2ccccc2)NC1=O
B5: Seq039-CF5 (peptide)
peptide: Ac-GWQPCPAESWTFCWDPGGGK(5FAM)-NH2
modifications: disulfide 5-13
SMILES: CC(=O)NCC(=O)N[C@@H](Cc1c[nH]c2ccccc12)C(=O)N[C@@H](CCC(N)=O)C(=O)N1CCC[C@H]1C(=O)N[C@H]1CSSC[C@@H](C(=O)N[C@@H](Cc2c[nH]c3ccccc23)C(=O)N[C@@H](CC(=O)O)C(=O)N2CCC[C@H]2C(=O)NCC(=O)NCC(=O)NCC(=O)N[C@@H](CCCCNC(=O)c2ccc3c(c2)C(=O)OC32c3ccc(O)cc3Oc3cc(O)ccc32)C(N)=O)NC(=O)[C@H](Cc2ccccc2)NC(=O)[C@H]([C@@H](C)O)NC(=O)[C@H](Cc2c[nH]c3ccccc23)NC(=O)[C@H](CO)NC(=O)[C@H](CCC(=O)O)NC(=O)[C@H](C)NC(=O)[C@@H]2CCCN2C1=O

Bridge positions count the residues as written; N and C are the ends. Square brackets hold non-standard residues; d marks the D form. Ends that are not written are not given here. * marks the point of attachment. αGalNAc = CC(=O)N[C@@H]1[C@@H](O)[C@@H](O)[C@@H](CO)O[C@@H]1*; 5FAM = O=C1OC2(c3ccc(O)cc3Oc3cc(O)ccc32)c2ccc(C(=O)*)cc21; Phe(3,4-F2) = N[C@@H](Cc1ccc(F)c(F)c1)C(=O)O; Thf2ca = tetrahydrofuran-2-carboxylic acid; Phe(4-F) = N[C@@H](Cc1ccc(F)cc1)C(=O)O; Cha = N[C@@H](CC1CCCCC1)C(=O)O; CF5 = 5-carboxyfluorescein

The target in the assay is DDE. As to the kind of experiment: direct binding fluorescence polarization: CF5-labeled peptide titrated with DDE; n = 2. For orientation: In fluorescence polarisation assays a small probe gives low polarisation when free and higher when bound to something large.
Consider GWQPCPAESWT[Cha]CWDPGGGK(CF5)-NH2 (disulfide 5-13) [Seq051-CF5], for which the Kd amounted to 60 nM. Ac-RGWQPCPAESWT[Cha]CWDPGGGK(CF5)-NH2 (disulfide 6-14) [Seq053-CF5] came in with a Kd of 100 nM. In the case of B1 it was 240 nM; in that of Ac-RWQPCPAESWTFCWDPGGGK(5FAM)-NH2 (disulfide 5-13; not fully specified) [Seq049-CF5], 210 nM.

Ac-S(αGalNAc)WQPCPWESWTFCWDPGGGK(CF5)-NH2 (disulfide 5-13) [Seq027-CF5] yielded a Kd of 500 nM. This Kd lies about 2.4-fold higher than the previous one. Regarding Ac-GWQPCPAESWT[Cha]CWDPGGGK(CF5)-NH2 (disulfide 5-13) [Seq055-CF5], the Kd was determined as 80 nM. The molecule B2 showed a Kd of 110 nM.

Molecule B3 registered a Kd of 110 nM. Consider Thf2ca-WQPCPWESWTFCWDPGGGK(CF5)-NH2 (disulfide 4-12) [Seq028-CF5], for which the dissociation constant Kd was found to be 1210 nM.

Turning to Ac-WQPCPWESWT[Phe(4-F)]CWDPGGGK(CF5)-NH2 (disulfide 4-12) [Seq019-CF5], the Kd turned out to be 1020 nM. As to Ac-WQPCPWESWT[Phe(3,4-F2)]CWDPGGGK(CF5)-NH2 (disulfide 4-12) [Seq020-CF5], the Kd was determined as 700 nM. With RGWQPCPAESWT[Cha]CWDPGGGK(CF5)-NH2 (disulfide 6-14) [Seq054-CF5], the Kd was found to be 50 nM.

As for Ac-RGWQPCPWESWTFCWDPGGGK(5FAM)-NH2 (disulfide 6-14; not fully specified) [Seq052-CF5], the Kd stood at 530 nM. As to B4, the Kd is 280 nM. In the case of Ac-RWQPCPAESWT[Cha]CWDPGGGK(CF5)-NH2 (disulfide 5-13) [Seq050-CF5] it was 80 nM. The value for B5 was 240 nM. Take Ac-WQPCPWESWT[Cha]CWDPGGGK(CF5)-NH2 (disulfide 4-12) [Seq018-CF5]: the dissociation constant Kd is 200 nM.

As a reminder, the Kd is the concentration at which binding is half-saturated.
